In paper PMC9910054 one finds stoichiometry N data, which are given here for one substance.

This assay has as its target Mycobacterium tuberculosis chorismate mutase variant V55D (Mycobacterium tuberculosis). In words: crystal structure; sitting drop vapor diffusion, 20 °C; protein 44 mg/mL in 20 mM Bis Tris propane, pH 7.5, 150 mM NaCl; reservoir 0.2 M zinc acetate dihydrate, 10% w/v PEG 3000, 0.1 M sodium acetate, pH 4.5; space group P22(1)2(1); 2.1 Å.

Broadly, the stoichiometry N is the number of molecules, sites or subunits per partner or assembly. “Mycobacterium tuberculosis chorismate mutase variant V55D (enzyme)” yielded a stoichiometry N of 2.
